Values belong to the molecule of their own block, whether it stands above or below them.
Key:
[1] = target: His-TEV LRRC4B (limits not told for Fig. 1G) (human); test: ELISA
[2] = target: 6xHis-LRRC4B(453–576) (human) (UniProt Q9NT99); test: SPR
[3] = target: His-TEV LRRC4B(36-576) (human) (UniProt Q9NT99); test: ELISA
[4] = target: LRRC4B(484-576)-hFc (human) (UniProt Q9NT99); test: ELISA
[5] = target: LRRC4B(453-576)-hFc (human) (UniProt Q9NT99); test: ELISA
[6] = target: T1, PTPRF ectodomain (30-1263)-hFc (human, UniProt P10586-1 30-1263); test: ELISA
T1 sequence (looked up): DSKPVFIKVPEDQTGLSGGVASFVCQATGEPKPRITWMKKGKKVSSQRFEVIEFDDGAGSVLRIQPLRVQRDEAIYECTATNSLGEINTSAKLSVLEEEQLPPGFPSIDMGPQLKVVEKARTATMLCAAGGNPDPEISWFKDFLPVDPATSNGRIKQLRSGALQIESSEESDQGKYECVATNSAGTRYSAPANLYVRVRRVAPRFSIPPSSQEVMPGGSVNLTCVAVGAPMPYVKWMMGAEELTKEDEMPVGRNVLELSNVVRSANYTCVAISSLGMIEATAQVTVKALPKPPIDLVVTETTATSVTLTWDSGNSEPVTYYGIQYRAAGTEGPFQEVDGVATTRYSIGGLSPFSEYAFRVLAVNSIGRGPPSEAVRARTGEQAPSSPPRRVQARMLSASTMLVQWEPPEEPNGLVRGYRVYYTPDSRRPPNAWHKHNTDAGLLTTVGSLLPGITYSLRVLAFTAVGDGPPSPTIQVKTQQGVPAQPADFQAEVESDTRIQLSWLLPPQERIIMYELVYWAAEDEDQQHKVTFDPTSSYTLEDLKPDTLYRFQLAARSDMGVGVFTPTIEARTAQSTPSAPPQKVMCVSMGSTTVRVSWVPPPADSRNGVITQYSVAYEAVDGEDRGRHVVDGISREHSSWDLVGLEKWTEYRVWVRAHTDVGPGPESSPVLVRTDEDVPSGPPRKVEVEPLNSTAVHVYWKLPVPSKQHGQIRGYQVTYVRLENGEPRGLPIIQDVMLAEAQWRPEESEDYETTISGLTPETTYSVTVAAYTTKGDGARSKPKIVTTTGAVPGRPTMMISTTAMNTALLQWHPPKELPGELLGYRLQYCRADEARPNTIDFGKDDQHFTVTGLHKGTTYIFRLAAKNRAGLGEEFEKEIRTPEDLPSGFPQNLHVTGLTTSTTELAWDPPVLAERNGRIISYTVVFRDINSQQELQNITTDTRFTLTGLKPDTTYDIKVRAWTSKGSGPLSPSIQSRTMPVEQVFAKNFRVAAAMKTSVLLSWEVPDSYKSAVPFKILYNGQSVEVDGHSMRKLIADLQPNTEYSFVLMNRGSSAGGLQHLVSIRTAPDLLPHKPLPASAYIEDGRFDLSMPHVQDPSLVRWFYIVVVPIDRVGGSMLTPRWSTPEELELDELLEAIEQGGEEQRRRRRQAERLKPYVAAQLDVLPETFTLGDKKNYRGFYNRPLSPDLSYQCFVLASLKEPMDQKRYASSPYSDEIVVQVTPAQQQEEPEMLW

[7] = target: FAM19A5 (wild type, recombinant) (human); test: ELISA

binding result [6]: binds
B1: His-TEV LRRC4B(36-576) (domain or fragment, human, UniProt Q9NT99 36-576, looked up)
chain: AGGGGVAVTSAAGGGSPPATSCPVACSCSNQASRVICTRRDLAEVPASIPVNTRYLNLQENGIQVIRTDTFKHLRHLEILQLSKNLVRKIEVGAFNGLPSLNTLELFDNRLTTVPTQAFEYLSKLRELWLRNNPIESIPSYAFNRVPSLRRLDLGELKRLEYISEAAFEGLVNLRYLNLGMCNLKDIPNLTALVRLEELELSGNRLDLIRPGSFQGLTSLRKLWLMHAQVATIERNAFDDLKSLEELNLSHNNLMSLPHDLFTPLHRLERVHLNHNPWHCNCDVLWLSWWLKETVPSNTTCCARCHAPAGLKGRYIGELDQSHFTCYAPVIVEPPTDLNVTEGMAAELKCRTGTSMTSVNWLTPNGTLMTHGSYRVRISVLHDGTLNFTNVTVQDTGQYTCMVTNSAGNTTASATLNVSAVDPVAAGGTGSGGGGPGGSGGVGGGSGGYTYFTTVTVETLETQPGEEALQPRGTEKEPPGPTTDGVWGGGRPGDAAGPASSSTTAPAPRSSRPTEKAFTVPITDVTENALKDLDDVMKTTK

IC50 [7]: 8.1 nM
B2: LRRC4B(453-576)-hFc (Fc fusion)
chain: VSAVDPVAAGGTGSGGGGPGGSGGVGGGSGGYTYFTTVTVETLETQPGEEALQPRGTEKEPPGPTTDGVWGGGRPGDAAGPASSSTTAPAPRSSRPTEKAFTVPITDVTENALKDLDDVMKTTK

Continued, molecule first:

Molecule: MT FAM19A5(R58A, R59A) (ligand)
EC50 [1]: 0.595 nM

Molecule: FAM19A5 (wild type, recombinant) (ligand)
Kd [2]: 0.0321 nM
koff [2]: 0.000157 s⁻¹
kon [2]: 4.89e+06 M⁻¹ s⁻¹
EC50 [1]: 0.41 nM
IC50 [3]: 281 nM
EC50 [4]: 0.112 nM
EC50 [5]: 0.0685 nM

— doi:10.1101/2023.11.22.568357 (bioRxiv, 2023)
